# Measured values from article PMC10623010 (Proceedings of the National Academy of Sciences of the …, 2023).
# T1: recombinant human lipoprotein lipase (hLPL) (human, UniProt P06858 28-475)
# T1 sequence: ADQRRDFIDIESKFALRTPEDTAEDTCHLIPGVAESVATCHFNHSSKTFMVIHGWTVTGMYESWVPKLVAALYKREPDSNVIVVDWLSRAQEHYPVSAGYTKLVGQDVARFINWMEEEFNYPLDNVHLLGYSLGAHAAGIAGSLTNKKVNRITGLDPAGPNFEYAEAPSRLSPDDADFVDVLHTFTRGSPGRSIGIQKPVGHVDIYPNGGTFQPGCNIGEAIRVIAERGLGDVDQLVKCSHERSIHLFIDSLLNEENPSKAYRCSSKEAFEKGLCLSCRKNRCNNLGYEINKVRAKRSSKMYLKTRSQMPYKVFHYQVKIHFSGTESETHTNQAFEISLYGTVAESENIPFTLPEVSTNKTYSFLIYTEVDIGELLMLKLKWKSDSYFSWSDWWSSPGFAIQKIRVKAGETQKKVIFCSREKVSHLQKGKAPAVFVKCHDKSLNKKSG
# B1: recombinant mouse GPIHBP1 (mGPIHBP1) (natural protein)
# chain: QEDGDADPEPENYNYDDDDDEEEEEETNMIPGSRDRAPLQCYFCQVLHSGESCNQTQSCSSSKPFCITLVSHSGTDKGYLTTYSMWCTDTCQPIIKTVGGTQMTQTCCQSTLCNIPPWQNPQVQNPLGGRADSPLESGTRHPQGGKFSHPQVVKAAHPQSDGANLPKSGKANQPQG
# Target: T1, recombinant human lipoprotein lipase …
# Test: pull-down
binder,measurement,value
B1,binding result,binds
